Read-outs that look alike come from different tables or passages of the source.
B1: RIM2α(82–142) (domain or fragment, rat, UniProt Q9JIS1-1 82-142, looked up)
chain: QQEQKGDAPTCGICHKTKFADGCGHNCSYCQTKFCARCGGRVSLRSNKVMWVCNLCRKQQE
notes: also called RIM2α ZF domain; RIM2α zinc-finger domain; source: bacteria, GST fusion, purified (glutathione-Sepharose, GST cleaved, size-exclusion or ion-exchange chromatography)
B2: Munc13–1(3–132) (domain or fragment, rat, UniProt Q62768 3-132, looked up)
chain: LLCVGVKKAKFDGAQEKFNTYVTLKVQNVKSTTIAVRGSQPSWEQDFMFEINRLDLGLTVEVWNKGLIWDTMVGTVWIPLRTIRQSNEEGPGEWLTLDSQAIMADSEICGTKDPTFHRILLDAHFELPLD
notes: Forms a homodimer (AUC); source: bacteria, GST fusion, purified (glutathione-Sepharose, GST cleaved, size-exclusion or ion-exchange chromatography)
B3: Munc13–1(3–209) (domain or fragment, rat, UniProt Q62768 3-209, looked up)
chain: LLCVGVKKAKFDGAQEKFNTYVTLKVQNVKSTTIAVRGSQPSWEQDFMFEINRLDLGLTVEVWNKGLIWDTMVGTVWIPLRTIRQSNEEGPGEWLTLDSQAIMADSEICGTKDPTFHRILLDAHFELPLDIPEEEARYWAKKLEQLNAMRDQDEYSFQDQQDKPLPVPSSQCCNWNYFGWGEQNDDPDSAVDDRDSDYRSETSNSIP
notes: Munc13-1, rat, residues 3-209; Forms a homodimer (AUC); 15N-labelled for NMR; source: bacteria, GST fusion, purified (glutathione-Sepharose, GST cleaved, size-exclusion or ion-exchange chromatography)
B4: Munc13–1(3–150) (domain or fragment, rat, UniProt Q62768 3-150, looked up)
chain: LLCVGVKKAKFDGAQEKFNTYVTLKVQNVKSTTIAVRGSQPSWEQDFMFEINRLDLGLTVEVWNKGLIWDTMVGTVWIPLRTIRQSNEEGPGEWLTLDSQAIMADSEICGTKDPTFHRILLDAHFELPLDIPEEEARYWAKKLEQLNA
notes: Munc13-1, rat, residues 3-150 (C2A domain and C-terminal extension); Forms a homodimer (AUC); 15N-labelled for NMR; source: bacteria, GST fusion, purified (glutathione-Sepharose, GST cleaved, size-exclusion or ion-exchange chromatography)
B5: Munc13–1(3–128) (domain or fragment, rat, UniProt Q62768 3-128, looked up)
chain: LLCVGVKKAKFDGAQEKFNTYVTLKVQNVKSTTIAVRGSQPSWEQDFMFEINRLDLGLTVEVWNKGLIWDTMVGTVWIPLRTIRQSNEEGPGEWLTLDSQAIMADSEICGTKDPTFHRILLDAHFE
notes: Cloned into a modified pGEX-KG vector with a TEV protease cleavage site; Forms a homodimer (AUC, crystal structure); 15N-labelled for NMR; also called Munc13–1 C2A domain; Munc13–1 C2A-domain homodimer; source: bacteria, GST fusion, purified (glutathione-Sepharose, GST cleaved, size-exclusion or ion-exchange chromatography)

Legend:
[1] = molecular target: RIM2α ZF domain (Rattus norvegicus) (UniProt Q9JIS1); settings: cited from earlier work
[2] = molecular target: RIM2α ZF domain (Rattus norvegicus) (UniProt Q9JIS1); settings: cited from earlier work; remark: listed apart in the source
Munc13–1(3–150) = molecular target: B4; test: SEC; gel filtration on Superdex S75 or S200; 30 mM Tris-HCl, 150 mM NaCl, 1 mM TCEP, pH 7.4; isolated proteins and their mixtures (Figures 1B, 4A); settings: both partners purified
Munc13–1(3–209) = molecular target: B3; test: as above; settings: both partners purified
[3] = molecular target: Munc13–1(3–150)(K32E) (rat) (UniProt Q62768); test: ITC; 200 μM Rim2α(82-142) injected into 10-20 μM Munc13-1(3-150)(K32E) in the cell; 20 °C; 30 mM Tris pH 7.4, 150 mM NaCl, 1 mM TCEP; single-site model; apparent Kd
[4] = molecular target: the molecule itself; test: AUC; sedimentation equilibrium at 20,000-35,000 rpm, 4 °C; 30 mM Tris pH 8.0, 150 mM NaCl, 1 mM TCEP; loading 12.46-13.65 μM; monomer/dimer equilibrium model, dimer to monomers; the paper notes that constants below 50-100 nM are not quite accurate

Row | Molecule | Kd [4] [nM] | stoichiometry N [4] | further results
1 | Munc13-1 3-150 (from UniProt Q62768) |  |  | Kd [1]: 350 nM
2 | Munc13-1 3-209 (from UniProt Q62768) |  |  | Kd [2]: 70 nM
3 | B1 |  |  | binding result (Munc13–1(3–150)): binds; binding result (Munc13–1(3–209)): binds; Kd [3]: 100 nM; stoichiometry N [3]: 1
4 | B2 | 80 | 2 | 
5 | B3 | 1.9 | 2 | 
6 | B4 | 5.2 | 2 | 
7 | B5 | 310 | 2 | 

— PMC1472246, “Structural Basis for a Munc13–1 Homodimer to Munc13–1/RIM Heterodimer Switch” (PLoS Biology, 2006)
